In US20140087995A1 (published 2014):
Numbered stars: 1 amine (or outer) side, 2 acyl side, 3 side chain; on linkers, the order of the positions; unused ones are H or OH. Bridge positions count the residues as written; N and C are the ends. Side chains are listed from the residue outwards. Ends that are not written are not given here. * marks the point of attachment. C20 diacid = O=C(O)CCCCCCCCCCCCCCCCCCC(=O)*; γGlu = O=C(O)[C@H](CCC(=O)[*:2])N[*:1]; AEEA = NCCOCCOCC(=O)O

Assays:
[1] = target: T1, rat calcitonin receptor (rat, UniProt P32214 25-516); assay: ratio IC50 rat calcitonin receptor / IC50 rat amylin receptor
T1 construct: whole, on cells; Cell membranes of transiently transfected BHK tk'ts 13 cells (Assay VIII); also called rCTR; rCT
T1 sequence (looked up): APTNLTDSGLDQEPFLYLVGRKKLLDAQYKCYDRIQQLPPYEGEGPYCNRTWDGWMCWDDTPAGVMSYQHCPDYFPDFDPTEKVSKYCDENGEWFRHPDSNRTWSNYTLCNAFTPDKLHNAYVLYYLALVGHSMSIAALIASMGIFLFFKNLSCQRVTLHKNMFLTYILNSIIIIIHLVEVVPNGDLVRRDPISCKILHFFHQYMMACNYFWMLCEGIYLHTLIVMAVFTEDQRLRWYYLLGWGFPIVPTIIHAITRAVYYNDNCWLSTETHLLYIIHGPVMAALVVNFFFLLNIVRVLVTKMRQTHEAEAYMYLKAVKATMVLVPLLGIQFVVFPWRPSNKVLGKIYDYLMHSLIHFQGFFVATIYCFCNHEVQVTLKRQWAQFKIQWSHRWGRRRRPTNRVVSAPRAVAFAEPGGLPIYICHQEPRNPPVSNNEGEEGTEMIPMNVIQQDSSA

[2] = target: T1, rat calcitonin receptor; assay: SPA competition vs 125I-calcitonin, membranes with rat CTR (Assay VIII)
[3] = target: T2, human calcitonin receptor (human, UniProt P30988 25-474); assay: ratio IC50 human calcitonin receptor / IC50 human amylin receptor
T2 construct: whole, on cells; Cell membranes of a stably transfected BHK cell line (Assay VII); also called hCTR; hCT
T2 sequence (looked up): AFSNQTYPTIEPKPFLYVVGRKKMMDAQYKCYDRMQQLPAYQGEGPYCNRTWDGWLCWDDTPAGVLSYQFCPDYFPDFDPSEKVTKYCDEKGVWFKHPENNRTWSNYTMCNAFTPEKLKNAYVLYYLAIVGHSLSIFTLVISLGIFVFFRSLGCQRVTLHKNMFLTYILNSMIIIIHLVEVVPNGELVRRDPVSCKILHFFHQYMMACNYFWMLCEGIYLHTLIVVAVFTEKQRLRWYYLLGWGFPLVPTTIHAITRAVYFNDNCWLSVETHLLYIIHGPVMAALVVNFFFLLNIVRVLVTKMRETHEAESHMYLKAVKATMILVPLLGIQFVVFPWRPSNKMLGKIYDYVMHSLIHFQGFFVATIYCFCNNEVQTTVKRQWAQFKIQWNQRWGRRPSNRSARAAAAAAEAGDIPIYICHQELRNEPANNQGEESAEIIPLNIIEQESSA
Protocol: The resulting pellet was resuspended, homogenized and centrifuged (20.000 rpm, 15 min) in a buffer containing 20 mM Na-HEPES and 0.1 mM EDTA (pH 7.4, buffer 2). The resulting pellet was resuspended in buffer 2 and protein concentration was measured (BCA protein Assay, Pierce). The homogenate was kept cold during the whole procedure. The membranes were kept at −80° C. until use. The assay was performed in a 384 well Optiplate (PerkinElmer) in a total volume of 40 ul. Membranes were mixed with SPA beads. Final concentration of membranes 35 ng/μL final and SPA beads was 0.05 mg/well. Test-compounds were dissolved in DMSO and further diluted in assay buffer (50 mM Hepes, pH 7.4, 1 mM CaCl2, 5 mM MgCl₂, 0.1% OA and 0.02% Tween20). […] The final mixture was incubated with shaking at 400 rpm for 120 min at 25° C. prior to centrifugation (1500 rpm, 10 min). Samples were analyzed on TopCounter™ (Packard). The IC₅₀ was calculated using (one site binding competition analysis) GraphPad Prism5 as a measure of receptor affinity.
Membranes were prepared in the following way; the cells were rinsed with PBS and incubated with Versene for approximately 5 min before harvesting. The cells were flushed with PBS and the cell-suspension was centrifuged for 5 min at 1000 rpm. Cells were homogenized (Ultrathurrax) in a buffer containing 20 mM Na-HEPES and 10 mM EDTA (pH 7.4) and centrifuged at 20.000 rpm for 15 min. The resulting pellet was resuspended, homogenized and centrifuged (20.000 rpm, 15 min) in a buffer containing 20 mM Na-HEPES and 0.1 mM EDTA (pH 7.4, buffer 2). The resulting pellet was resuspended in buffer 2 and protein concentration was measured (BCA protein Assay, Pierce). The homogenate was kept cold during the whole procedure. The membranes were kept at −80° C. until use. Assay was performed in a 384 well Optiplate (PerkinElmer) in a total volume of 40 ul. Membranes were mixed with SPA beads.

[4] = target: T3, rat amylin receptor (rat calcitonin receptor + rat RAMP 3) (rat, UniProt P32214 25-516; Q9JJ73 23-147); assay: SPA competition vs 125I-rat amylin, membranes with rat CTR + rat RAMP3 (Assay VI)
T3 construct: whole, on cells; Cell membranes of transiently transfected BHK tk'ts 13 cells (Assay VI); also called rAmylin-R; rat amylin 3(a) receptor
T3 sequence (looked up) 1: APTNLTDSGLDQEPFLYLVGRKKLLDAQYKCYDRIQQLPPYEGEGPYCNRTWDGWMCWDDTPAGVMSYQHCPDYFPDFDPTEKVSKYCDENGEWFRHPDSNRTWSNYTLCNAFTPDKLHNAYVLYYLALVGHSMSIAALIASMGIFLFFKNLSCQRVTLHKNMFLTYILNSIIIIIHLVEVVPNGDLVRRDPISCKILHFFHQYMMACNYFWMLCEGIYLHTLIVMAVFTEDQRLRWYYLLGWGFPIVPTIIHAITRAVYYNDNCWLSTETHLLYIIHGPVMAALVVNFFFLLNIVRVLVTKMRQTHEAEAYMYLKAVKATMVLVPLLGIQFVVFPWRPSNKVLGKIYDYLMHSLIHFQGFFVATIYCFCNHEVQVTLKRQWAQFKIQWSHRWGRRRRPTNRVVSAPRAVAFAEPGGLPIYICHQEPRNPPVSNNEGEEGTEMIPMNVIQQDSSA
T3 sequence (looked up) 2: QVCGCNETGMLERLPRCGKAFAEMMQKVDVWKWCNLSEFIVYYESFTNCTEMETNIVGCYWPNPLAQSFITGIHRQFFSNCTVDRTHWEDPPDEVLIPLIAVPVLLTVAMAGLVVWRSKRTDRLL

Row | Binder | Ratio rCT/rAmylin binding [1] | IC50 [2] [nM] | Ratio hCT/hAmylin binding [3] | IC50 [4] [nM]
1 | {C20 diacid-γGlu}-KCNTATCATQRLAHFLRHSSPNFGAIPSSTNVGSETY-NH2 (disulfide 2-7; SMILES CC[C@H](C)[C@H](NC(=O)[C@H](C)NC(=O)CNC(=O)[C@H](Cc1ccccc1)NC(=O)[C@H](CC(N)=O)NC(=O)[C@@H]1CCCN1C(=O)[C@H](CO)NC(=O)[C@H](CO)NC(=O)[C@H](Cc1c[nH]cn1)NC(=O)[C@H](CCCNC(=N)N)NC(=O)[C@H](CC(C)C)NC(=O)[C@H](Cc1ccccc1)NC(=O)[C@H](Cc1c[nH]cn1)NC(=O)[C@H](C)NC(=O)[C@H](CC(C)C)NC(=O)[C@H](CCCNC(=N)N)NC(=O)[C@H](CCC(N)=O)NC(=O)[C@@H](NC(=O)[C@H](C)NC(=O)[C@@H]1CSSC[C@H](NC(=O)[C@H](CCCCN)NC(=O)CC[C@H](NC(=O)CCCCCCCCCCCCCCCCCCC(=O)O)C(=O)O)C(=O)N[C@@H](CC(N)=O)C(=O)N[C@@H]([C@@H](C)O)C(=O)N[C@@H](C)C(=O)N[C@@H]([C@@H](C)O)C(=O)N1)[C@@H](C)O)C(=O)N1CCC[C@H]1C(=O)N[C@@H](CO)C(=O)N[C@@H](CO)C(=O)N[C@H](C(=O)N[C@@H](CC(N)=O)C(=O)N[C@H](C(=O)NCC(=O)N[C@@H](CO)C(=O)N[C@@H](CCC(=O)O)C(=O)N[C@H](C(=O)N[C@@H](Cc1ccc(O)cc1)C(N)=O)[C@@H](C)O)C(C)C)[C@@H](C)O, Acylated analogue of human amylin; also called compound 30) | 36.1 | 114 | 23.6 | 3.14
2 | {C20 diacid-γGlu}-KCNTATCATQRLAEFLRHSSPNFGAIPSSTNVGSETY-NH2 (disulfide 2-7; SMILES CC[C@H](C)[C@H](NC(=O)[C@H](C)NC(=O)CNC(=O)[C@H](Cc1ccccc1)NC(=O)[C@H](CC(N)=O)NC(=O)[C@@H]1CCCN1C(=O)[C@H](CO)NC(=O)[C@H](CO)NC(=O)[C@H](Cc1c[nH]cn1)NC(=O)[C@H](CCCNC(=N)N)NC(=O)[C@H](CC(C)C)NC(=O)[C@H](Cc1ccccc1)NC(=O)[C@H](CCC(=O)O)NC(=O)[C@H](C)NC(=O)[C@H](CC(C)C)NC(=O)[C@H](CCCNC(=N)N)NC(=O)[C@H](CCC(N)=O)NC(=O)[C@@H](NC(=O)[C@H](C)NC(=O)[C@@H]1CSSC[C@H](NC(=O)[C@H](CCCCN)NC(=O)CC[C@H](NC(=O)CCCCCCCCCCCCCCCCCCC(=O)O)C(=O)O)C(=O)N[C@@H](CC(N)=O)C(=O)N[C@@H]([C@@H](C)O)C(=O)N[C@@H](C)C(=O)N[C@@H]([C@@H](C)O)C(=O)N1)[C@@H](C)O)C(=O)N1CCC[C@H]1C(=O)N[C@@H](CO)C(=O)N[C@@H](CO)C(=O)N[C@H](C(=O)N[C@@H](CC(N)=O)C(=O)N[C@H](C(=O)NCC(=O)N[C@@H](CO)C(=O)N[C@@H](CCC(=O)O)C(=O)N[C@H](C(=O)N[C@@H](Cc1ccc(O)cc1)C(N)=O)[C@@H](C)O)C(C)C)[C@@H](C)O, Acylated analogue of human amylin; also called compound 22) | 28.5 | 62.5 | 12.3 | 2.19
3 | K([AEEA-AEEA-γGlu-C20 diacid])CNTATCATQRLANFLRHSSPNFGAIPSSTNVGSETY-NH2 (disulfide 2-7; N-terminus assumed; SMILES CC[C@H](C)[C@H](NC(=O)[C@H](C)NC(=O)CNC(=O)[C@H](Cc1ccccc1)NC(=O)[C@H](CC(N)=O)NC(=O)[C@@H]1CCCN1C(=O)[C@H](CO)NC(=O)[C@H](CO)NC(=O)[C@H](Cc1c[nH]cn1)NC(=O)[C@H](CCCNC(=N)N)NC(=O)[C@H](CC(C)C)NC(=O)[C@H](Cc1ccccc1)NC(=O)[C@H](CC(N)=O)NC(=O)[C@H](C)NC(=O)[C@H](CC(C)C)NC(=O)[C@H](CCCNC(=N)N)NC(=O)[C@H](CCC(N)=O)NC(=O)[C@@H](NC(=O)[C@H](C)NC(=O)[C@@H]1CSSC[C@H](NC(=O)[C@@H](N)CCCCNC(=O)COCCOCCNC(=O)COCCOCCNC(=O)CC[C@H](NC(=O)CCCCCCCCCCCCCCCCCCC(=O)O)C(=O)O)C(=O)N[C@@H](CC(N)=O)C(=O)N[C@@H]([C@@H](C)O)C(=O)N[C@@H](C)C(=O)N[C@@H]([C@@H](C)O)C(=O)N1)[C@@H](C)O)C(=O)N1CCC[C@H]1C(=O)N[C@@H](CO)C(=O)N[C@@H](CO)C(=O)N[C@H](C(=O)N[C@@H](CC(N)=O)C(=O)N[C@H](C(=O)NCC(=O)N[C@@H](CO)C(=O)N[C@@H](CCC(=O)O)C(=O)N[C@H](C(=O)N[C@@H](Cc1ccc(O)cc1)C(N)=O)[C@@H](C)O)C(C)C)[C@@H](C)O, Acylated analogue of human amylin; also called compound 25) | 37.7 | 131 | 56.5 | 3.48
4 | K([AEEA-γGlu-C20 diacid])CNTATCATQRLANFLRHSSPNFGAIPSSTNVGSETY-NH2 (disulfide 2-7; N-terminus assumed; SMILES CC[C@H](C)[C@H](NC(=O)[C@H](C)NC(=O)CNC(=O)[C@H](Cc1ccccc1)NC(=O)[C@H](CC(N)=O)NC(=O)[C@@H]1CCCN1C(=O)[C@H](CO)NC(=O)[C@H](CO)NC(=O)[C@H](Cc1c[nH]cn1)NC(=O)[C@H](CCCNC(=N)N)NC(=O)[C@H](CC(C)C)NC(=O)[C@H](Cc1ccccc1)NC(=O)[C@H](CC(N)=O)NC(=O)[C@H](C)NC(=O)[C@H](CC(C)C)NC(=O)[C@H](CCCNC(=N)N)NC(=O)[C@H](CCC(N)=O)NC(=O)[C@@H](NC(=O)[C@H](C)NC(=O)[C@@H]1CSSC[C@H](NC(=O)[C@@H](N)CCCCNC(=O)COCCOCCNC(=O)CC[C@H](NC(=O)CCCCCCCCCCCCCCCCCCC(=O)O)C(=O)O)C(=O)N[C@@H](CC(N)=O)C(=O)N[C@@H]([C@@H](C)O)C(=O)N[C@@H](C)C(=O)N[C@@H]([C@@H](C)O)C(=O)N1)[C@@H](C)O)C(=O)N1CCC[C@H]1C(=O)N[C@@H](CO)C(=O)N[C@@H](CO)C(=O)N[C@H](C(=O)N[C@@H](CC(N)=O)C(=O)N[C@H](C(=O)NCC(=O)N[C@@H](CO)C(=O)N[C@@H](CCC(=O)O)C(=O)N[C@H](C(=O)N[C@@H](Cc1ccc(O)cc1)C(N)=O)[C@@H](C)O)C(C)C)[C@@H](C)O, Acylated analogue of human amylin; also called compound 26) | 309 | 152 | 47.5 | 0.491
